This test has as its target cytosolic domain of human Fis1 (Fis1_ΔTM, residues 1−123) (human, UniProt Q9Y3D6 1-123). Briefly: SPR. (In general: Surface plasmon resonance follows binding to a sensor surface in real time, without labels.)

B1: Bap31_CC2 D224K (domain or fragment)
chain: LDVGNAEVKLEEENRSLKADLQKLKDELASTKQKLEKAENQVLAMRKQSEGLTKEYKRLLEEHAKLQAAVDGPMDKKEE
Regarding B1, the Kd (commonly the concentration at which binding is half-saturated) was found to be 156 µM.
